Results from patent US20100092457A1 (Chugai, published 2010).

T1: full-length human DSG3 (Desmoglein 3) protein (human, UniProt P32926 50-999)
T1 construct: Full-length protein constantly expressed on transfected cells (DSG3-CHO, DSG3-A549, DSG3-Ba/F3); no signal peptide limits are stated; also called hDSG3; PV antigen
T1 sequence: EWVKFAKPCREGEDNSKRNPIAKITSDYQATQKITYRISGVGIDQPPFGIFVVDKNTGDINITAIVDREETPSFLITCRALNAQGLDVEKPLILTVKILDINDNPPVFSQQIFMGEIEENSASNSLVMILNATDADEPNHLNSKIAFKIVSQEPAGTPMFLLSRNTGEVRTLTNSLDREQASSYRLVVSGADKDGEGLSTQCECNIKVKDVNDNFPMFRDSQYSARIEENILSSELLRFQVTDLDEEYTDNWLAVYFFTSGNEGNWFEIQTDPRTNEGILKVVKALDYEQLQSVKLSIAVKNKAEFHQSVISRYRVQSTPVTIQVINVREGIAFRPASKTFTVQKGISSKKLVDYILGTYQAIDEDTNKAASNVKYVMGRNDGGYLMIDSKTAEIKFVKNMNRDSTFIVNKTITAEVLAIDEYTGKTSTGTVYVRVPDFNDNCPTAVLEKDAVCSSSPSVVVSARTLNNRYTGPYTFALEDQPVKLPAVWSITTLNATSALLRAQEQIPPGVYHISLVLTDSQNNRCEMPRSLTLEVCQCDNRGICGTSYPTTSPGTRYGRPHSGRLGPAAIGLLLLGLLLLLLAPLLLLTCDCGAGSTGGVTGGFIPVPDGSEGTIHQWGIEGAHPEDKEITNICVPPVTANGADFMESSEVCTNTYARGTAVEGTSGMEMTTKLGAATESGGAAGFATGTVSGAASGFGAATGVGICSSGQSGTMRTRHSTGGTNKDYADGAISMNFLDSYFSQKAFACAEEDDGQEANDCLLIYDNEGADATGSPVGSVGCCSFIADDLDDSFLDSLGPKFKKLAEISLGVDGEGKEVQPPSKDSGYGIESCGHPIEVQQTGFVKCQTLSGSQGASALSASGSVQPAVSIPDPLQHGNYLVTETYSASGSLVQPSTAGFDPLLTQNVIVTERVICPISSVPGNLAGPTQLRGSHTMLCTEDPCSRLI

B1: anti-DSG3 monoclonal antibody DF364 (antibody)
heavy: EVQLQQSGTVLARPGASVKMSCKASGYTFASYWIHWVKQRPGQGLEWIGSIYPGNSDTTYNQKFKGKAKLTVVTSASSAYMELSSLTNEDSAVYYCTEPTYYSYDDYYAMDYWGQGTSVTVSSAKTTPPSVYPLAPGSAAQTNSMVTLGCLVKGYFPEPVTVTWNSGSLSSGVHTFPAVLQSDLYTLSSSVTVPSSTWPSQTVTCNVAHPASSTKVDKKIVPRDCGCKPCICTVPEVSSVFIFPPKPKDVLTITLTPKVTCVVVDISKDDPEVQFSWFVDDVEVHTAQTKPREEQFNSTFRSVSELPIMHQDWLNGKEFKCRVNSAAFPAPIEKTISKTKGRPKAPQVYTIPPPKEQMAKDKVSLTCMITDFFPEDITVEWQWNGQPAENYKNTQPIMDTDGSYFVYSKLNVQKSNWEAGNTFTCSVLHEGLHNHHTEKSLSHSPGK
light: EIVLTQSPALMAASPGEKVTITCSVSSSISSSNLHWYQQKSGTSPKPWIYGTSNLASGVPVRFSGSGSGTSYSLTISTMEAEDAATYYCQQWSSYPLTFGAGTKLELKRADAAPTVSIFPPSSEQLTSGGASVVCFLNNFYPKDINVKWKIDGSERQNGVLNSWTDQDSKDSTYSMSSTLTLTKDEYERHNSYTCEATHKTSTSPIVKSFNRNEC
notes: Mouse IgG1 kappa from hybridoma
B2: anti-DSG3 monoclonal antibody DF151 (antibody)
heavy: EVQLQQSGPELVKPGASVKISCKASGYSFTAYYMHWVKQSPEKCLEWIGQINPSTGGTTYNQKFKAKATLTVDKSSSTAYMQLKSLTSEDSAVYYCARWGDSWGQGTTLTVSSAKTTPPSVYPLAPGCGDTTGSSVTLGCLVKGYFPESVTVTWNSGSLSSSVHTFPALLQSGLYTMSSSVTVPSSTWPSQTVTCSVAHPASSTTVDKKLEPSGPISTINPCPPCKECHKCPAPNLEGGPSVFIFPPNIKDVLMISLTPKVTCVVVDVSEDDPDVQISWFVNNVEVHTAQTQTHREDYNSTIRVVSALPIQHQDWMSGKEFKCKVNNKDLPSPIERTISKIKGLVRAPQVYILPPPAEQLSRKDVSLTCLVVGFNPGDISVEWTSNGHTEENYKDTAPVLDSDGSYFIYSKLDIKTSKWEKTDSFSCNVRHEGLKNYYLKKTISRSPGK
light: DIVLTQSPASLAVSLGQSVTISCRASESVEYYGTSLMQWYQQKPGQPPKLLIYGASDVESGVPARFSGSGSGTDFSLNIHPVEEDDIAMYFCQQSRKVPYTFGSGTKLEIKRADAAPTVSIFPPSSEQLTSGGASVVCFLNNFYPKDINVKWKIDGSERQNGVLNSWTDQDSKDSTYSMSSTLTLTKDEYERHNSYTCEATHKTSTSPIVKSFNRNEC
notes: Mouse IgG2b kappa from hybridoma
B3: anti-DSG3 monoclonal antibody DF366 (antibody)
heavy: EVQLQQSGPELVKPGASVKISCKASGYTFTDYNMDWVKQSHGESLEWIGYIYPNNGGSGYNQKFKSKATLTVDKSSSTAYMELHSLTSEDSAVYYCARRDSYYGFDMAWFAYWGQGTLVTVSAAKTTPPSVYPLAPGSAAQTNSMVTLGCLVKGYFPEPVTVTWNSGSLSSGVHTFPAVLQSDLYTLSSSVTVPSSTWPSQTVTCNVAHPASSTKVDKKIVPRDCGCKPCICTVPEVSSVFIFPPKPKDVLTITLTPKVTCVVVDISKDDPEVQFSWFVDDVEVHTAQTKPREEQFNSTFRSVSELPIMHQDWLNGKEFKCRVNSAAFPAPIEKTISKTKGRPKAPQVYTIPPPKEQMAKDKVSLTCMITDFFPEDITVEWQWNGQPAENYKNTQPIMDTDGSYFVYSKLNVQKSNWEAGNTFTCSVLHEGLHNHHTEKSLSHSPGK
light: DIQMTQSPASLSASVGETVTITCRPSENIYNNLAWYQQKQGKSPQLLVYVATNLAEGVPSRFSGSGSGTRFSLKINSLQPEDFGKYYCQHSYGTPWTFGGGTKLEIKRADAAPTVSIFPPSSEQLTSGGASVVCFLNNFYPKDINVKWKIDGSERQNGVLNSWTDQDSKDSTYSMSSTLTLTKDEYERHNSYTCEATHKTSTSPIVKSFNRNEC
notes: as for B1
B4: DF151 mouse-human chimeric antibody (antibody)
heavy: not shown
light: DIVLTQSPASLAVSLGQSVTISCRASESVEYYGTSLMQWYQQKPGQPPKLLIYGASDVESGVPARFSGSGSGTDFSLNIHPVEEDDIAMYFCQQSRKVPYTFGSGTKLEIKRTVAAPSVFIFPPSDEQLKSGTASVVCLLNNFYPREAKVQWKVDNALQSGNSQESVTEQDSKDSTYSLSSTLTLSKADYEKHKVYACEVTHQGLSSPVTKSFNRGEC
notes: made in CHO DG44 cells; also called DF151c
B5: low-fucose DF151 mouse-human chimeric antibody (antibody, human IgG1, kappa)
heavy: not shown
light: B4 light
modifications: low-fucose sugar chain (produced in YB2/0 cells)
notes: differs only in glycosylation (low fucose); also called YB-DF151c
B6: DF366 mouse-human chimeric antibody (antibody)
heavy: not shown
light: DIQMTQSPASLSASVGETVTITCRPSENIYNNLAWYQQKQGKSPQLLVYVATNLAEGVPSRFSGSGSGTRFSLKINSLQPEDFGKYYCQHSYGTPWTFGGGTKLEIKRTVAAPSVFIFPPSDEQLKSGTASVVCLLNNFYPREAKVQWKVDNALQSGNSQESVTEQDSKDSTYSLSSTLTLSKADYEKHKVYACEVTHQGLSSPVTKSFNRGEC
notes: made in CHO DG44 cells; also called DF366c
B7: low-fucose DF366 mouse-human chimeric antibody (antibody, human IgG1, kappa)
heavy: not shown
light: B6 light
modifications: low-fucose sugar chain (produced in YB2/0 cells)
notes: differs only in glycosylation (low fucose); also called YB-DF366c
B8: mouse IgG2a chimeric DF366 antibody (antibody)
heavy: EVQLQQSGPELVKPGASVKISCKASGYTFTDYNMDWVKQSHGESLEWIGYIYPNNGGSGYNQKFKSKATLTVDKSSSTAYMELHSLTSEDSAVYYCARRDSYYGFDMAWFAYWGQGTLVTVSAAKTTAPSVYPLAPVCGDTTGSSVTLGCLVKGYFPEPVTLTWNSGSLSSGVHTFPAVLQSDLYTLSSSVTVTSSTWPSQSITCNVAHPASSTKVDKKIEPRGPTIKPCPPCKCPAPNLLGGPSVFIFPPKIKDVLMISLSPIVTCVVVDVSEDDPDVQISWFVNNVEVHTAQTQTHREDYNSTLRVVSALPIQHQDWMSGKEFKCKVNNKDLPAPIERTISKPKGSVRAPQVYVLPPPEEEMTKKQVTLTCMVTDFMPEDIYVEWTNNGKTELNYKNTEPVLDSDGSYFMYSKLRVEKKNWVERNSYSCSVVHEGLHNHHTTKSFSRTPGK
light: B3 light
notes: made in CHO DG44 cells; also called DF366m
B9: DF364 mouse-human chimeric antibody (antibody)
heavy: not shown
light: EIVLTQSPALMAASPGEKVTITCSVSSSISSSNLHWYQQKSGTSPKPWIYGTSNLASGVPVRFSGSGSGTSYSLTISTMEAEDAATYYCQQWSSYPLTFGAGTKLELKRTVAAPSVFIFPPSDEQLKSGTASVVCLLNNFYPREAKVQWKVDNALQSGNSQESVTEQDSKDSTYSLSSTLTLSKADYEKHKVYACEVTHQGLSSPVTKSFNRGEC
notes: made in CHO DG44 cells; also called DF364c
B10: low-fucose DF364 mouse-human chimeric antibody (antibody, human IgG1, kappa)
heavy: not shown
light: B9 light
modifications: low-fucose sugar chain (produced in YB2/0 cells)
notes: differs only in glycosylation (low fucose); also called YB-DF364c

Each binder was assayed against T1, full-length human DSG3 (Desmoglein 3) … (assay: hybridoma screening by flow cytometry on CHO cells expressing full-length human DSG3).
Method: Next, RPMI1640 medium (Invitrogen) was added carefully to dilute PEG 1500, and then PEG 1500 was removed by centrifuging and removing the supernatant. The group of fused cells suspended in RPMI1640 containing 10% FBS was seeded into a 96-well culture plate at 100 μL/well. The following day, RPMI1640 containing 10% FBS, 1×HAT media supplement (SIGMA), and 0.5×BM-Condimed H1 Hybridoma cloning supplement (Roche Diagnostics) (hereinafter referred to as HAT medium) was added at 100 μL/well. On the second or third day, half of the culture solution was replaced with HAT medium, and the culture supernatant from the seventh day was used in the screening in which binding activity to the DSG3 molecule was used as an indicator. The screening was performed by flow cytometric analysis which detects binding to CHO cells that show constant expression of full-length human DSG3. Positive clones obtained by this analysis were monocloned by the limiting dilution method. Specifically, DF120, DF122, DF148, DF151, DF153, DF168, DF331, DF364, and DF366 were established as antibodies that specifically bind to DSG3.
Flow cytometry was used to evaluate the binding of the obtained antibodies to CHO cells that show constant expression of full-length human DSG3. The cells were suspended in FACS Buffer (1% FBS/PBS) at 5×10⁵ cells/mL and dispensed into Multiscreen-HV Filter Plates (Millipore), and the supernatant was removed from this cell suspension solution by centrifugation. After adding to the supernatant-free cells an FACS buffer containing anti-DSG3 monoclonal antibodies which have been diluted to a suitable concentration (3 μg/mL) in the FACS buffer, this was left to stand for 30 minutes on ice to let the cells react with the monoclonal antibodies. After removing the supernatant from this reaction solution by centrifugation, the cells were washed once with FACS buffer. Next, by suspending the cells in a FACS buffer containing FITC-labeled anti-mouse IgG antibody as the secondary antibody, the cells were reacted with the secondary antibody for 30 minutes on ice. […]

| binding result | Binder |
| --- | --- |
| binds | B1 |
| binds | B2 |
| binds | B3 |

Each binder was assayed against T1, full-length human DSG3 (Desmoglein 3) … (assay: flow cytometry).

| binding result | Binder |
| --- | --- |
| binds | B4 |
| binds | B5 |
| binds | B6 |
| binds | B7 |
| binds | B8 |
| binds | B9 |
| binds | B10 |
